Assay [1] deals with VPS35, Q96QK1. The assay can be described thus: GFP-based co-IP, western blot band quantification. The settings on record: chain shown with the change; HEK293T cells, transient transfection; normalised to GFP band intensity; n = 3; parent: est. 100; read off a plot. (In western blotting, separated proteins are transferred to a membrane and probed.)
The target of assay [2] is endogenous VPS26, O75436. Kind of assay: GFP-based co-IP, western blot band quantification. Particulars: chain shown with the change; HEK293T cells, transient transfection; normalised to GFP band intensity; n = 3; parent: est. 100; read off a plot.

Drawing on article PMC12311110, this text covers percent of parent (relative intensity (WT = 100)) for one molecule.

B1: GFP-DENND4C fragment 1087-1271, WT, Q5VZ89 Y1239D (protein)
chain: PKTSLLHIARTHSFENVSCHLPDSRTCMSESTWNPEHRSSPVPEMLEESQELLEPVVDDVPKTTATVDTYESLLSDSNSNQSRDLKTVSKDLRNKRSSLYGIAKVVQREDVETGLDPLSLLATECTGGKTPDSEDKLFSPVIARNLADEIESDMNLKSPLGSKSSSMELHREENRESGMTTAFIH
As for B1, the percent of parent (relative intensity (WT = 100)) in assay [1] was 22; in assay [2], 18.
